According to article PMC4151696:

Tests used:
[1] = test system: TRF2; test: EMSA
[2] = test system: TRF1; test: EMSA

Substance: Cy3 telomeric PCR product (255 bp)
- K half [1]: 111 nM
- K half [2]: 152 nM
